{"source": "patent US20230357367A1", "assay_in_all_cases": "cell-based or functional assay", "key": {"[1]": {"molecular_target": "spike (SARS-CoV-2, B.1.617.2, Delta) (SARS-CoV-2)"}, "[2]": {"molecular_target": "spike (SARS-CoV-2, BA.1) (SARS-CoV-2)"}, "[3]": {"molecular_target": "spike (SARS-CoV-2, BA.1.1) (SARS-CoV-2)"}, "[4]": {"molecular_target": "spike (SARS-CoV-2, BA.2) (SARS-CoV-2)"}, "[5]": {"molecular_target": "spike (SARS-CoV-2, BA.2.12.1) (SARS-CoV-2)"}, "[6]": {"molecular_target": "spike (SARS-CoV-2, BA.2.3.20) (SARS-CoV-2)"}, "[7]": {"molecular_target": "spike (SARS-CoV-2, BA.2.75) (SARS-CoV-2)"}, "[8]": {"molecular_target": "spike (SARS-CoV-2, BA.2.75.2) (SARS-CoV-2)"}, "[9]": {"molecular_target": "spike (SARS-CoV-2, BA.4.6) (SARS-CoV-2)"}, "[10]": {"molecular_target": "spike (SARS-CoV-2, BA.4/5) (SARS-CoV-2)"}, "[11]": {"molecular_target": "spike (SARS-CoV-2, BF.7) (SARS-CoV-2)"}, "[12]": {"molecular_target": "spike (SARS-CoV-2, BF.7.14) (SARS-CoV-2)"}, "[13]": {"molecular_target": "spike (SARS-CoV-2, BN.1) (SARS-CoV-2)"}, "[14]": {"molecular_target": "spike (SARS-CoV-2, BQ.1) (SARS-CoV-2)"}, "[15]": {"molecular_target": "spike (SARS-CoV-2, BQ.1.1) (SARS-CoV-2)"}, "[16]": {"molecular_target": "spike (SARS-CoV-2, CH.1.1) (SARS-CoV-2)"}, "[17]": {"molecular_target": "spike (SARS-CoV-2, XBB.1) (SARS-CoV-2)"}, "[18]": {"molecular_target": "spike (SARS-CoV-2, XBB.1.5) (SARS-CoV-2)"}, "[19]": {"molecular_target": "spike (SARS-CoV-2, B.1.617.2, Delta) (SARS-CoV-2)", "remark": "listed apart in the source"}, "[20]": {"molecular_target": "spike (SARS-CoV-2, B.1.617.2, Delta) (SARS-CoV-2)", "remark": "listed apart in the source"}, "[21]": {"molecular_target": "spike (SARS-CoV-2, B.1.617.2, Delta) (SARS-CoV-2)", "remark": "listed apart in the source"}, "[22]": {"molecular_target": "spike (SARS-CoV-2, B.1.617.2, Delta) (SARS-CoV-2)", "remark": "listed apart in the source"}, "[23]": {"molecular_target": "spike (SARS-CoV-2, BQ.1.1) (SARS-CoV-2)", "remark": "listed apart in the source"}, "[24]": {"molecular_target": "spike (SARS-CoV-2, XBB.1.5) (SARS-CoV-2)", "remark": "listed apart in the source"}}, "note": "Read-outs that look alike come from different tables or passages of the source.", "data": [{"substance": "bebtelovimab (antibody)", "values": [{"measurement": "EC50, live virus neutralization", "setting": "[1]", "result": 4.6, "unit": "ng/mL"}, {"measurement": "EC50, pseudovirus neutralization", "setting": "[1]", "result": 3.8, "unit": "ng/mL"}, {"measurement": "EC50, pseudovirus neutralization, TMPRSS2-Vero E6, with isotype", "setting": "[1]", "result": 1.6, "unit": "ng/mL"}, {"measurement": "EC50, pseudovirus neutralization, Vero E6, with isotype", "setting": "[1]", "result": 0.63, "unit": "ng/mL"}, {"measurement": "EC80, pseudovirus neutralization", "setting": "[1]", "result": 23, "unit": "ng/mL"}, {"measurement": "EC80, pseudovirus neutralization, TMPRSS2-Vero E6, with isotype", "setting": "[1]", "result": 13, "unit": "ng/mL"}, {"measurement": "EC80, pseudovirus neutralization, Vero E6, with isotype", "setting": "[1]", "result": 4.2, "unit": "ng/mL"}, {"measurement": "EC90, live virus neutralization", "setting": "[1]", "result": 15.9, "unit": "ng/mL"}, {"measurement": "EC90, pseudovirus neutralization", "setting": "[1]", "result": 66, "unit": "ng/mL"}, {"measurement": "EC90, pseudovirus neutralization, TMPRSS2-Vero E6, with isotype", "setting": "[1]", "result": 43, "unit": "ng/mL"}, {"measurement": "EC90, pseudovirus neutralization, Vero E6, with isotype", "setting": "[1]", "result": 13, "unit": "ng/mL"}, {"measurement": "Emax, pseudovirus neutralization (% neutralization)", "setting": "[1]", "result": 99.9}, {"measurement": "Emax, pseudovirus neutralization, TMPRSS2-Vero E6, with isotype (% neutralization)", "setting": "[1]", "result": 99.7}, {"measurement": "Emax, pseudovirus neutralization, Vero E6, with isotype (% neutralization)", "setting": "[1]", "result": 99.7}, {"measurement": "EC50, pseudovirus neutralization", "setting": "[2]", "result": 0.17, "unit": "ng/mL"}, {"measurement": "EC80, pseudovirus neutralization", "setting": "[2]", "result": 1.8, "unit": "ng/mL"}, {"measurement": "EC90, pseudovirus neutralization", "setting": "[2]", "result": 7.2, "unit": "ng/mL"}, {"measurement": "Emax, pseudovirus neutralization (% neutralization)", "setting": "[2]", "result": 99.8}, {"measurement": "EC50, pseudovirus neutralization", "setting": "[3]", "result": 0.12, "unit": "ng/mL"}, {"measurement": "EC80, pseudovirus neutralization", "setting": "[3]", "result": 1.3, "unit": "ng/mL"}, {"measurement": "EC90, pseudovirus neutralization", "setting": "[3]", "result": 5.6, "unit": "ng/mL"}, {"measurement": "Emax, pseudovirus neutralization (% neutralization)", "setting": "[3]", "result": 99.9}, {"measurement": "EC50, pseudovirus neutralization", "setting": "[4]", "result": 0.2, "unit": "ng/mL"}, {"measurement": "EC80, pseudovirus neutralization", "setting": "[4]", "result": 1.4, "unit": "ng/mL"}, {"measurement": "EC90, pseudovirus neutralization", "setting": "[4]", "result": 4.4, "unit": "ng/mL"}, {"measurement": "Emax, pseudovirus neutralization (% neutralization)", "setting": "[4]", "result": 99.9}, {"measurement": "EC50, pseudovirus neutralization", "setting": "[5]", "result": 0.2, "unit": "ng/mL"}, {"measurement": "EC80, pseudovirus neutralization", "setting": "[5]", "result": 1.2, "unit": "ng/mL"}, {"measurement": "EC90, pseudovirus neutralization", "setting": "[5]", "result": 3.6, "unit": "ng/mL"}, {"measurement": "Emax, pseudovirus neutralization (% neutralization)", "setting": "[5]", "result": 99.9}, {"measurement": "EC50, pseudovirus neutralization", "setting": "[6]", "result": 12, "unit": "ng/mL"}, {"measurement": "EC80, pseudovirus neutralization", "setting": "[6]", "result": 360, "unit": "ng/mL"}, {"measurement": "EC90, pseudovirus neutralization", "setting": "[6]", "result": 2600, "unit": "ng/mL"}, {"measurement": "Emax, pseudovirus neutralization (% neutralization)", "setting": "[6]", "result": 97.9}, {"measurement": "EC50, pseudovirus neutralization", "setting": "[7]", "result": 0.65, "unit": "ng/mL"}, {"measurement": "EC80, pseudovirus neutralization", "setting": "[7]", "result": 8.2, "unit": "ng/mL"}, {"measurement": "EC90, pseudovirus neutralization", "setting": "[7]", "result": 36, "unit": "ng/mL"}, {"measurement": "Emax, pseudovirus neutralization (% neutralization)", "setting": "[7]", "result": 99.5}, {"measurement": "EC50, pseudovirus neutralization", "setting": "[8]", "result": 0.46, "unit": "ng/mL"}, {"measurement": "EC80, pseudovirus neutralization", "setting": "[8]", "result": 6.3, "unit": "ng/mL"}, {"measurement": "EC90, pseudovirus neutralization", "setting": "[8]", "result": 29, "unit": "ng/mL"}, {"measurement": "Emax, pseudovirus neutralization (% neutralization)", "setting": "[8]", "result": 99.5}, {"measurement": "EC50, pseudovirus neutralization", "setting": "[9]", "result": 0.2, "unit": "ng/mL"}, {"measurement": "EC80, pseudovirus neutralization", "setting": "[9]", "result": 2.5, "unit": "ng/mL"}, {"measurement": "EC90, pseudovirus neutralization", "setting": "[9]", "result": 11, "unit": "ng/mL"}, {"measurement": "Emax, pseudovirus neutralization (% neutralization)", "setting": "[9]", "result": 99.6}, {"measurement": "EC50, pseudovirus neutralization", "setting": "[10]", "result": 0.073, "unit": "ng/mL"}, {"measurement": "EC80, pseudovirus neutralization", "setting": "[10]", "result": 1.2, "unit": "ng/mL"}, {"measurement": "EC90, pseudovirus neutralization", "setting": "[10]", "result": 6.4, "unit": "ng/mL"}, {"measurement": "Emax, pseudovirus neutralization (% neutralization)", "setting": "[10]", "result": 99.8}, {"measurement": "EC50, pseudovirus neutralization", "setting": "[11]", "result": 0.11, "unit": "ng/mL"}, {"measurement": "EC80, pseudovirus neutralization", "setting": "[11]", "result": 1.7, "unit": "ng/mL"}, {"measurement": "EC90, pseudovirus neutralization", "setting": "[11]", "result": 8.5, "unit": "ng/mL"}, {"measurement": "Emax, pseudovirus neutralization (% neutralization)", "setting": "[11]", "result": 99.8}, {"measurement": "EC50, pseudovirus neutralization", "setting": "[12]", "result": 0.22, "unit": "ng/mL"}, {"measurement": "EC80, pseudovirus neutralization", "setting": "[12]", "result": 1.4, "unit": "ng/mL"}, {"measurement": "EC90, pseudovirus neutralization", "setting": "[12]", "result": 4.1, "unit": "ng/mL"}, {"measurement": "Emax, pseudovirus neutralization (% neutralization)", "setting": "[12]", "result": 99.8}, {"measurement": "EC50, pseudovirus neutralization", "setting": "[13]", "result": 0.467, "unit": "ng/mL"}, {"measurement": "EC80, pseudovirus neutralization", "setting": "[13]", "result": 5.3, "unit": "ng/mL"}, {"measurement": "EC90, pseudovirus neutralization", "setting": "[13]", "result": 22, "unit": "ng/mL"}, {"measurement": "Emax, pseudovirus neutralization (% neutralization)", "setting": "[13]", "result": 99.4}, {"measurement": "Emax, pseudovirus neutralization (% neutralization)", "setting": "[14]", "result": 72.2}, {"measurement": "Emax, pseudovirus neutralization (% neutralization)", "setting": "[15]", "result": 53}, {"measurement": "Emax, pseudovirus neutralization, TMPRSS2-Vero E6, with isotype (% neutralization)", "setting": "[15]", "result": 40.5}, {"measurement": "Emax, pseudovirus neutralization, Vero E6, with isotype (% neutralization)", "setting": "[15]", "result": 59.1}, {"measurement": "Emax, pseudovirus neutralization (% neutralization)", "setting": "[16]", "result": 5.32}, {"measurement": "Emax, pseudovirus neutralization (% neutralization)", "setting": "[17]", "result": 10.8}, {"measurement": "Emax, pseudovirus neutralization (% neutralization)", "setting": "[18]", "result": 2.01}, {"measurement": "Emax, pseudovirus neutralization, TMPRSS2-Vero E6, with isotype (% neutralization)", "setting": "[18]", "result": 2.93}, {"measurement": "Emax, pseudovirus neutralization, Vero E6, with isotype (% neutralization)", "setting": "[18]", "result": 4.21}, {"measurement": "EC50, pseudovirus neutralization, Vero E6, with isotype", "setting": "[19]", "result": 0.44, "unit": "ng/mL"}, {"measurement": "EC80, pseudovirus neutralization, Vero E6, with isotype", "setting": "[20]", "result": 3.5, "unit": "ng/mL"}, {"measurement": "EC90, pseudovirus neutralization, Vero E6, with isotype", "setting": "[21]", "result": 12, "unit": "ng/mL"}, {"measurement": "Emax, pseudovirus neutralization, Vero E6, with isotype (% neutralization)", "setting": "[22]", "result": 99.7}, {"measurement": "Emax, pseudovirus neutralization, Vero E6, with isotype (% neutralization)", "setting": "[23]", "result": 55.6}, {"measurement": "Emax, pseudovirus neutralization, Vero E6, with isotype (% neutralization)", "setting": "[24]", "result": 0.55}]}]}
